Results taken from the RNAGym collection of RNA variant scans (doi:10.1021/acssynbio.7b00057).

B1: Pistol ribozyme (parent)
chain: GGGUCGUUGUUCCAUAAUCGCGUGGAUAUGGCACGCAAGUUUCUACCGGGCACCGUAAAUGUCCGACUGGAGCCGUUCGGGCGGCUAUAAACAGACCUCAGGCCCGAAGCGUGGCGGCACCUGCCGCCGGUGGUAAAAAAGAUCGGAAGAGCACACGUCU

Variants of: B1
Assay: aptazyme ON/OFF ratio, guanine; higher = stronger switching; co-transcriptional cleavage with and without guanine

Row | Variant | aptazyme ON/OFF ratio
1 | U7A U8A G9U U10G U11C C12G C13A | 1.09
2 | U7A U8G G9C U10A U11G C13A | 1.29
3 | U7G G9C U11G C12U C13U | 1.2
4 | U7G G9A U10C U11C C12G | 1.17
5 | U8A G9U U11G C12A C13A | 1.11
6 | U8G G9U U10G U11G C13U | 1.02
7 | U7G G9A U10G C13U | 1.12
8 | U7C U8G G9U U10G C13U | 1.2
9 | U7C U8C G9A U10A C12U C13G | 1.19
10 | U8C G9U U11A C12A C13A | 1.26
11 | U7G U8A G9A U10C U11G C12G C13A | 1.2
12 | U7G U10G U11A C12A C13A | 1.14
13 | U7C G9C U11G C12A | 1.01
14 | U8C G9C C12A C13G | 1.1
15 | U7C U8A G9U U10A C12U C13U | 1.19
16 | U7G G9A U10C U11A C12A | 1.1
17 | U7G U8G G9U | 1.51
18 | U7G U8A G9C U10G U11G C12A C13G | 1.03
19 | U7A U8G C12U C13G | 1.24
20 | U7A U8G G9U U11G | 1.94
21 | U7C G9A U11A | 1.33
22 | U7A G9C U10G C12A | 1.09
23 | U11C C13A | 1.2
24 | U7A U8G G9C U10G U11A C13U | 1.15

Row | Variant | aptazyme ON/OFF ratio
25 | U7C U8C G9U U10C U11C C12G C13A | 1.05
26 | U7A U8A G9U U10G U11G C13U | 1.17
27 | U7A G9U C12G C13G | 1.3
28 | U7G G9A U10G U11G C12A C13A | 1.03
29 | G9A U10C U11A C12A C13A | 1.28
30 | U7A U8A G9A U10A C12G C13G | 1.15
31 | U7G U8C G9A U11C C12U C13U | 1.08
32 | U8C U10C U11C C12A C13G | 1.33
33 | U7C U8A G9A U10A U11G C13G | 1.02
34 | U7G U8A G9U U10C U11C C12A C13A | 1.09
35 | U7A U8G G9U U11A C12G C13U | 1.39
36 | U8G G9C U10C U11C C12G | 1.06
37 | G9A U10A C12G | 1.61
38 | U7A U8A G9A U10G U11G C12U | 1.33
39 | U7C U8A U10C C12U C13U | 1.54
40 | U8A U10G C12A C13G | 1.09
41 | U7C U8C G9A U10C C12U C13A | 1.22
42 | U8G G9C U10A C13U | 1.09
43 | U7A G9C U11C C12G C13G | 1.09
44 | U7G U8G U10C C12U C13U | 1.39
45 | U7C U8G G9U U10C U11A | 1.5
46 | U7C U8A G9C U10A U11G C12U C13U | 1.13
47 | U7G U8G G9A U10C C12A | 1.46
48 | U7A U8C G9A U10G U11C C12G C13A | 1.21

Row | Variant | aptazyme ON/OFF ratio
49 | U7C G9C U10G U11G C12G C13A | 1.08
50 | U7G G9A C12U C13G | 1.15
51 | U8A G9U U10A U11A C12U C13A | 1.21
52 | U8C G9A U10G C13G | 1.14
53 | U7C G9A U10G C12U C13A | 1.2
54 | U7C U8C G9C U11G C12U C13A | 1.06
55 | U7G U8A G9U U10A U11A C13G | 1.02
56 | U7A G9U U10G U11A C12A C13A | 1.14
57 | U7A G9U U10A C13A | 1.08
58 | U7G G9C U10G U11G C12A C13U | 1.12
59 | U7A U8C G9U U10C U11A C12G C13G | 1.22
60 | U8A G9U U10C C12G C13A | 1.15
61 | G9A U10C U11A C13G | 1.14
62 | U7A U8A C12A C13A | 1.22
63 | U7G U8G U10A U11G C12A C13G | 1.15
64 | U7G G9C U10A U11G C12A C13A | 1.07
65 | U7A G9C U10G U11G C12G C13G | 1.13
66 | U7A U8C G9C U10C U11A C13G | 1.08
67 | U8G G9U U10A U11A C13U | 1.25
68 | U7G U8A G9U U10A | 1.46
69 | U7C G9U U10A U11G C12U C13A | 1.09
70 | U7C G9A | 1.17
71 | U7A G9C U10C U11C C12U C13G | 1.04
72 | U7A U8A G9U U10C U11C C12U C13G | 1.02

Row | Variant | aptazyme ON/OFF ratio
73 | U7A U8C G9C U10G U11C C12A | 1.1
74 | U8G U10G U11C C12A C13A | 1.06
75 | G9U U10C U11A C12A C13A | 1.53
76 | U7A U8C U10A U11G C12A C13A | 1.17
77 | U8A G9C U10A C12U C13A | 1.09
78 | U7G U8G G9A U10C U11G C13G | 1.28
79 | G9C U10G U11C C12G C13G | 1.24
80 | U8G G9C U10C U11G C12A | 1.07
81 | U7C U8A U10A U11C C12A C13U | 1.06
82 | U7A U8C U10G U11G C12A C13G | 1.15
83 | U8A G9U U10G C12A C13G | 1.12
84 | U7A G9A U10C U11C C12U C13G | 1.04
85 | U7G U8A U10A U11G C12U C13A | 1.38
86 | U7C U8C U10C U11G C12G C13A | 1.15
87 | U7A U8C G9C U10G U11A C12U C13U | 1.03
88 | U7G U8G G9C U10A U11G C13G | 1.03
89 | U7G U8C G9A U10G C12A C13U | 1.09
90 | U8C G9A U10C U11A C12U C13A | 1.37
91 | U7G U8G G9C U11G C12G C13U | 1.18
92 | G9C U10G U11C C13G | 1.03
93 | U8G G9U U10A U11G C12U C13U | 1.13
94 | U8A G9U U11G | 1.63
95 | U7G U8G G9U U10C C12G C13A | 1.24
96 | U8C G9A U10C U11G C12U | 1.29

Row | Variant | aptazyme ON/OFF ratio
97 | U7G U8G G9A U10C U11C C13G | 0.991
98 | U7G G9U U11A C12U C13U | 1.07
99 | U8C G9U U11C C12A C13G | 1.04
100 | U7C U10G U11G C13U | 1.22
101 | U7G U8G U10A C12G | 1.29
102 | U7G U8A G9U U10A U11C C13U | 1.02
103 | U7C U8A G9U U10C U11C C12G | 1.03
104 | G9U U10A U11A C13U | 1.25
105 | U8A G9U U10A C12A C13U | 1.36
106 | U7G U8A G9U U10A U11A C12G C13A | 1.05
107 | U7C U8C G9U U10A U11G C12G C13G | 1.08
108 | U7C G9U | 1.05
109 | U8C G9A U10A C12A C13A | 1.17
110 | U7A G9U U10G U11A C12G C13U | 1.31
111 | U7G U8C G9U U10C U11C C12G C13G | 1.29
112 | U7C G9C U11C C12A C13U | 1.05
113 | U7C U8A G9C U10C U11C | 1.01
114 | U8C U10G U11G C12A C13A | 1.11
115 | U7C G9A U10C C12U C13A | 1.2
116 | U8C G9C | 1.12
117 | U7C U8A G9U U10G U11A C13A | 1.06
118 | U8A G9A C12G | 1.41
119 | U10G C12G C13G | 1.09
120 | U7G G9C U10C U11A C13G | 1.22

Row | Variant | aptazyme ON/OFF ratio
121 | U7G U8G G9U U10C C12U C13G | 1.36
122 | G9C U10C U11G C12G C13G | 1.13
123 | U8C G9U U11A C12G C13G | 1.12
124 | U7C U8A G9A U10A | 1.69
125 | U7G U8G U10G U11G C13G | 1.13
126 | G9C U10G U11G C12G C13A | 1.1
127 | U7G U8A U10A U11G C12G C13U | 1.3
128 | U7A U8C G9C U10A U11A C12A | 1.09
129 | U7C U8C U10G C12U C13A | 1.08
130 | U7G U8C G9A U10C U11C C13U | 1.01
131 | U7A U10G U11C C12G | 1.64
132 | U7G U8G U11G C12A C13U | 1.35
133 | U7G U8G G9C U10C U11A C13U | 1.41
134 | U7C U8G G9U U10G U11G C12A | 1.22
135 | U7A U8A G9A U10C U11A C12G C13A | 1.08
136 | U7A U8G U10C U11G C12U C13G | 1.44
137 | U7G G9C U11G C13U | 1.17
138 | U8C U10A C12U C13U | 1.32
139 | U7C G9C U10A U11C C13A | 1.02
140 | U7C U8C G9C U10A C13G | 1.15
141 | U7G U8G U10A U11A C12U C13A | 1.44
142 | U8C U11A C12G C13A | 1.1
143 | U7C U11G C13G | 1.03
144 | U7C U8A G9U U10G C12G C13U | 1.22

Row | Variant | aptazyme ON/OFF ratio
145 | U7C U8A U11C C12A C13U | 1.25
146 | U7G U8A G9A U10C U11C C12A | 1.11
147 | U8A G9A U10A C12G C13G | 1.28
148 | G9C U10A C12G C13U | 1.22
149 | U8C G9C U10G C12U C13A | 1.12
150 | U7G U8G G9C U10C U11A C12G C13A | 1.28
151 | U7A U8A G9C U10G U11A | 1.06
152 | U8C U10A C12U C13A | 1.14
153 | U7G U8C U10G C12U C13A | 1.34
154 | U8A U10C U11G C12A C13U | 1.25
155 | U7G U8C G9A U10C U11A C13A | 1.18
156 | U7G U8C G9U U10A U11A C12G C13G | 1.16
157 | U7C U8G U10C U11C C12A C13A | 1.16
158 | U8G G9U U11A C12A C13A | 1.18
159 | U10G U11A C12A C13A | 1.11
160 | U7A U8A G9C U10A U11A C12G C13U | 1.19
161 | U7G U10G C12U C13U | 1.43
162 | U7A G9U U10G U11G C12G | 1.43
163 | U7A U8G U10A U11A C12A C13G | 1.38
164 | U7C U8C G9C U10G U11G C12A C13A | 1.08
165 | U7G U8A G9A U10A C12A C13U | 1.14
166 | U7C U8C G9A U10C U11A C12G | 1.23
167 | U7C U8G G9U U10A U11A C12A | 1.25
